Here are results for 2 substances from article PMC5362816.

The target of test [1] is HA-tagged CaM3 mutant (rat) (UniProt P0DP29). Description: co-IP; HA-CaM or mutants co-expressed with TRPA1-V5 in HEK293; IP with anti-HA.11 and Protein A/G PLUS-Agarose in 2 mM Ca2+; blot with anti-V5; band intensity by ImageJ, normalized by total TRPA1.
In test [2] the target is HA-tagged CaM12 mutant (rat) (UniProt P0DP29). Described as above.
For test [3], the target named is HA-tagged CaM4 mutant (rat) (UniProt P0DP29). Described as above.
For the next test, the target named is CaM-agarose (Sigma) (UniProt P62157). In words: pull-down; CaM-agarose (Sigma) incubated with HEK293 lysate expressing a V5-His-tagged TRP channel; 20 mM Tris-HCl pH 7.4, 150 mM NaCl, 1% NP-40, 4 °C; 1 mM Ca2+ (Fig. 2A) or 2 mM Ca2+ (Fig. 2B); blot with anti-V5.

Chain of TRPA1-V5-His (×6) (Q8BLA8 whole entry): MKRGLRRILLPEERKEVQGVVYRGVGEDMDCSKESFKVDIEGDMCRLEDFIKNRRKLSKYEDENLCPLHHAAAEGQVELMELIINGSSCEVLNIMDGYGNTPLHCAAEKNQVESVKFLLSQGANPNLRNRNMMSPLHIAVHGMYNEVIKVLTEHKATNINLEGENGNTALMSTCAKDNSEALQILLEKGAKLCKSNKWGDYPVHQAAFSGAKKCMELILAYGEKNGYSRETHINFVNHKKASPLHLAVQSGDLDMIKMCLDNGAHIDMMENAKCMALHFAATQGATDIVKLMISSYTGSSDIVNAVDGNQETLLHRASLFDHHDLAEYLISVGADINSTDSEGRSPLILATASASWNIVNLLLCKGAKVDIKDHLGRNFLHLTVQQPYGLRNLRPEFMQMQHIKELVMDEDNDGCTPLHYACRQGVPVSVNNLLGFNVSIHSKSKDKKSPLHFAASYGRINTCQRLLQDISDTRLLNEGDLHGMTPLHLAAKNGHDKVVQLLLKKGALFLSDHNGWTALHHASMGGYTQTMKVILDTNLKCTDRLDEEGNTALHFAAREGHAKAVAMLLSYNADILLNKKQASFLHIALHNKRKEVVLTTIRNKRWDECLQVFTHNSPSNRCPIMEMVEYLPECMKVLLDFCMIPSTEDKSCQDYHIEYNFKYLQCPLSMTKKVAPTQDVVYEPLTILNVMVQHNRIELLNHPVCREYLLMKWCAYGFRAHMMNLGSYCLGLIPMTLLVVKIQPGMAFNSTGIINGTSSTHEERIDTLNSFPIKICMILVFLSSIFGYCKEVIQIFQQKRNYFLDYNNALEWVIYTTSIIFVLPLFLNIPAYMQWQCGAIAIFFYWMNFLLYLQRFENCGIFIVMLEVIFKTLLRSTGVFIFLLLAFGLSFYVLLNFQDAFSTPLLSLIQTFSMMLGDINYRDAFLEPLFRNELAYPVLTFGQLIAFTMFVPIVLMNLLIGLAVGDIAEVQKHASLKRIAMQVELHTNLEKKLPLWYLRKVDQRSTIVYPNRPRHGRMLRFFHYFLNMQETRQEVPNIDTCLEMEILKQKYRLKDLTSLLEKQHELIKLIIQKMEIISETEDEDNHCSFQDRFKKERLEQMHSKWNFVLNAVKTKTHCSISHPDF

For “TRPA1-V5-His (×6) (from UniProt Q8BLA8 1-1125) (natural protein)”, the percent reduction in TRPA1-CaM binding against wild-type CaM in test [1] was determined as 60%; in test [2], 40%; in test [3] it was 87%.
Turning to TRPV3 (V5-His tagged) (natural protein), the relative binding to CaM (normalized by total input) with CaM-agarose (Sigma) was 0.2.
